Test results as given in patent US20210011017A1.

Key:
[1] = target: streptavidin (NEB, Cat #A00160) (UniProt P22629); assay: ELISA, streptavidin well without peptide, secondary antibody only
[2] = target: recombinant BoHV-1 gE CT-His polypeptide (Bovine herpesvirus type 1) (UniProt Q08101); assay: ELISA on coated gE CT-His, secondary antibody only (negative control)
[3] = target: recombinant BoHV-1 gE CT-His polypeptide (Bovine herpesvirus type 1) (UniProt Q08101); assay: competitive ELISA on gE CT-His; serum, then HRP-MAb 2H8F3 (competitor); negative control reference

UniProt P22629, sequence (P22629 37-163 limits assumed): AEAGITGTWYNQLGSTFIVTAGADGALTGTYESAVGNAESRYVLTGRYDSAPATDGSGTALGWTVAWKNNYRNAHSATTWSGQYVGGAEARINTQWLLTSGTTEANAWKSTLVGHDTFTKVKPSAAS

Row | Substance | O.D. 450 nm [1] | O.D. 450 nm [2] | % Inhibition [3] | S/N Ratio [3]
1 | goat anti-mouse IgG [HRP] secondary antibody | 0.055 O.D. 450 nm | 0.057 O.D. 450 nm |  | 
2 | inactivated, non-infected fetal calf serum (Atlas biologicals), negative control |  |  | 0% | 1
